Results from article PMC12484979 (Nature Communications, 2025).

Assays:
Experiment in all cases: cryo-EM structure
CD20 = CD20 (UniProt P11836)
[1] = target: human β-tryptase, tetrameric (activated by enterokinase cleavage) (human) (UniProt Q15661)
cryo-EM structure = target: the molecule itself

Rituximab Fab, wild type (human-mouse chimeric)
stoichiometry N (Fab per CD20 dimer) (CD20): 2

human β-tryptase, tetrameric (activated by enterokinase cleavage) (from UniProt Q15661 31-275) (enzyme)
stoichiometry N [1]: 4

B1: CD20 (natural protein)
chain: TQSFFMRESKTLGAVQIMNGLFHIALGGLLMIPAGIYAPICVTVWYPLWGGIMYIISGSLLAATEKNSRKCLVKGKMIMNSLSLFAAISGMILSIMDILNIKISHFLKMESLNFIRAHTPYINIYNCEPANPSEKNSPSTQYCYSIQSLFLGILSVMLIFAFFQELVIAGIVENEWKRTCSRPKSNIVLLSAEEKKEQTIEIKEEVVGLTETSSQPKNEEDIEIIPIQEEEEEETETNFPEPPQDQESSPIENDSSP
stoichiometry N (cryo-EM structure): 2
